One molecule from US20240352121A1, “LAIR-1 AGONISTIC ANTIBODIES AND METHODS OF USE THEREOF” (NEXTCURE, INC., priority 2023, published 2024) can be followed below.

One assay deals with AML patient cells. As to the kind of experiment: Ex vivo depleting assay, AML patient blood leukocytes. It counts as cell-based, human. The method, then: Whole blood from AML-diagnosed donors was RBC-depleted using StemCell RBC depletion kit following the manufacturer's instructions. Leukocytes were re-suspended in complete RPMI media containing 3 μg/mL of soluble mAb, then plated in 96-well round-bottom plates for 48 hours at 37° C. Cell death was analyzed by AnnexinV and Fixable Live-Dead staining following the manufacturer's instructions, quantified by flow cytometry. RBC depletion StemCell Ref #18170. Isotype=FC-G1 BioXcell Ref #BE0096. Live-Dead Stain Invitrogen Cat #L34966. AnnexinV-AF647 Biolegend Cat #640943.
Fresh whole blood was RBC-depleted using the EasySep™ RBC Depletion Reagent (StemCell, Vancouver, BC) following the manufacturer's protocol. Alternatively, frozen PBMCs were thawed in pre-warmed cRPMI media. Cell number was determined by VI-Cell XR cell counter. 2e5 cells per well were plated into 96-well plates lacking or containing 50 μg/mL pre-coated human Collagen I (StemCell, Vancouver, BC) in 200 μL of cRPMI containing 10 μg/mL of soluble LAIR-1 mAb or isotype control antibody (NP782 (NextCure, Beltsville, MD) or InVivoMAb recombinant human IgG1 Fc (BioXcell, Lebanon, NH)). Plates were centrifuged at 100×g for 2 minutes, then incubated for 20 hours at 37° C. in a TC incubator. At the end of incubation period, plates were centrifuged at 500×g for 4 min. […]

For assay [1], the system named is MV4-11-LAIR-1 Overexpressing cells. As to the kind of experiment: In vitro culture of MV4-11-LAIR-1 overexpressing cells with or without anti-IgG crosslinking. Type of assay: cell-based, human. On the procedure: FIGS. 4A-4O show the collagen matrix is vital to LAIR-1 induced AML cell death. (FIGS. 4A-C). Flow cytometry quantification of primary live, dead, or apoptotic total blood leukocytes after ex vivo treatment with 10 μg/mL IgG isotype control (gray) or LAIR-1 mAb (red) in the presence (FIG. 4A) or absence (FIG. 4B) of exogenous collagen, or (FIG. 4C), CD451^Lo SSC^Lo blast cells in the presence of isotype control or LAIR-1 mAb. N=3 technical replicates. […] Each dot represents an individual donor. Red shading highlights surface expression >20000 arbitrary units. Blue shading highlights expression <20000 units. Line represents simple linear regression. […] N=4-7 donors. […] Mean pixel density from Western blotting normalized to isotype control condition and graphed relative to total SHP-1. N=3 technical replicates. FIGS. 4G and 4H show mean pixel density from phospho-array of AML patient PBMCs treated ex vivo with 10 μg/mL of IgG isotype control (gray), 50 μg/mL coated collagen (white), or 10 μg/mL LAIR-1 mAb+coated collagen (red) for G, MAPK activity or (FIG. 4H), mTOR and NF-kB activity. N=2 technical replicates. […] FIGS. 4M and 4N) 4E-BP1 expression as measured by Lumit assay (FIG. 4M) or cleaved caspase-7 as measured by Western blot (FIG. 4N) of cells treated as shown in FIGS. 4I-4K. Mean pixel density normalized to histone-3 for triplicate samples. […] Values normalized to isotype for each respective condition. n=3-4 technical replicates. P values calculated by Student's t test. Error bars represent SEM.

Another assay concerns MV4-11 cells. The assay can be described thus: MV4-11-luciferase cell-derived xenograft (CDX) model. It counts as in vivo, NSG mice. The method, then: 2e6 luciferase-expressing MV4-11-Luc or THP-1-Luc cells were suspended in sterile PBS and implanted into NSG mice via tail-vein injection. […] AML cell proliferation was monitored by weekly i.p. injection of D-Luciferin, immediately followed by IVIS bioluminescent imaging and quantification of luminescent signal. […] Imaging Perkin Elmore IVIS Lumina XRMS Series III.
NSG mice were injected with 2e6 THP-1 luciferase cells or 2e6 MV4-11-luciferase cells via tail vein injection. Leukemia progression was quantified by i.p. injection of 100 μL bioluminescent substrate and IVIS imaging 8 minutes post injection. Progression was assessed weekly staring on Day 7 post-challenge. 10 mg/kg mab treatment was performed by i.p injection starting on day 8 and continuing twice a week until the end of the study. For the subcutaneous engraftment model, NSG mice were subcutaneously injected on the right flank with 5e6 MV4-11-Luc-LAIR-1^OE cells. Mice were treated by weekly i.p. injection of 10 mg/kg mAb. Tumor growth was measured by calipers twice weekly until end point.

The test system of another assay is AML PBMCs. As to the kind of experiment: ADCC assay, AML patient PBMCs with healthy donor NK cells. Type of assay: cell-based, human. The note with it: 3:1 Target:Effector ratio, 4 hours. On the procedure:
ADCC was measured using the CytoTox 96® Non-Radioactive Cytotoxicity Assay (Promega) following the manufacturer's instructions. Briefly, AML patient PBMCs were mixed with healthy donor NK cells at a 3:1 Target:Effector ratio in complete RPMI containing the indicated concentration of soluble h11B3 or Fc-G1 isotype control. Mixed cells were incubated for 4 hours at 37 deg C. Test wells were run in quadruplicate. AML PBMCs-Donor #200018616, newly diagnosed/untreated. NK cells-Healthy Donor #83, isolated from PBMCs via StemCell Kit #17955 following manufacturer's instructions. CytoTox 96® Non-Radioactive Cytotoxicity Assay Promega Cat #G1780. % Cytotoxicity quantified by target cell LDH release. % Cytotoxicity=((Test Well LDH Release−Effector Cell Spontaneous Release−Target Cell Spontaneous Release)/(Target Cell Max Release−Target Cell Spontaneous Release))*100. Target Cells=AML PBMCs Donor #200018616; Effector Cells=NK cells isolated from healthy Donor #83 PBMCs. […] ADCC was measured using the Toxilight Bioluminescent Cytotoxicity Assay (Lonza)) following the manufacturer's instructions. […] Toxilight Bioluminescent Cytotoxicity Assay kit Lonza Cat #LT17-217. % Cytotoxicity quantified by target cell adenylate kinase release; ADCC calculated as described above. […]

B1: LAIR-1 mAb: humanized agonist anti-LAIR-1 mAb, IgG1 backbone; h11B3 VL-2 (SEQ ID NO: 16), h11B3 VH-3 (SEQ ID NO: 27) (antibody, V domains shown)
VH: EVQLVESGGGLVQPGGSLKLSCAASGFTFNTNAMYWVRQAPGKGLEWVGRIRSKSSNYATYYAASVKGRFTISRDDSKNTLYLQMNSLKTEDTAVYYCVRGGSGFFAYWGQGTLVTVSS
VL: DIQMTQSPSSLSASLGDRVTITCKASEDIYIRLAWYQQKPGKAPRLLISTATSLETGVPSRFSGSGSGTDYTFTISSLQPEDIATYYCQQYWSTPYTFGGGTRLEIK
modifications: IgG1 constant regions; Synthetic: h11B3 VH-3; Synthetic: h11B3 VL-2
Regarding B1, the AML cell death entry in the assay with AML patient cells (3 μg/mL soluble mAb, 48 hours) was “induces AML cell death”. Moreover, the “cell death of total AML patient cells or CD45Low SSCLow blasts” value in the assay with AML patient cells (10 μg/mL, plate-coated collagen) is “significant cell death”. The “growth of LAIR-1 Overexpressing cells” value in assay [1] (LAIR-1 mAb alone, vs isotype control) is recorded as “only moderately suppressed”. The proliferation of cells entry in assay [1] (anti-IgG crosslinking conditions, after 3 days of culture) is “completely inhibited”. In assay [1] (crosslinking conditions), the “4E-BP1 (mTORC1 target protein)” value is “significant suppression” and the “activated caspase-7” value is “substantial increase”. In addition, in the assay with MV4-11 cells (10 mg/kg i.p. twice a week), the “leukemic cell growth in vivo” value was “inhibited leukemic cell growth”. Besides, the “inhibition of LAIR-1 OE AML growth compared to LAIR-1 WT” value with MV4-11 cells (MV4-11 LAIR-1 OE vs WT cells) is on record as “more strongly inhibiting”. For the same molecule, the tumor burden result in the assay with MV4-11 cells (biweekly dose of 10 mg/kg, flow cytometry of spleen and bone marrow) is reported as “reduce tumor burden”. In the assay with MV4-11 cells (mouse, in vivo), the “AML cells in the blood, spleen, and bone marrow” value was “nearly absent”; the “percentage of dead MV4-11 cells in blood, spleen, and bone-marrow” value is “increased”. Further, the “MV4-11 in vivo growth, monotherapy” value in the assay with MV4-11 cells (physiologically relevant doses, 10 mg/kg NC525, 100 mg/kg VEN, 0.5 mg/kg AZA) was “significantly better activity than AZA monotherapy”. Moreover, the ADCC result in the assay with AML PBMCs is “induces AML cell death through antibody dependent cytotoxicity (ADCC)”.
